How the values were obtained:
[1] = target: human CTLA4, full length, on transfected HEK293 cells (human) (UniProt P16410); assay: flow cytometry, Fc fusion at 66.6 nM on HEK293 cells transfected with CTLA4
[2] = target: human PD-L1, full length, on transfected HEK293 cells (human) (UniProt Q9NZQ7); assay: flow cytometry, Fc fusion at 22.2 nM on HEK293 cells transfected with PD-L1
[3] = target: human CD28, full length, on transfected HEK293 cells (human) (UniProt P10747); assay: flow cytometry, Fc fusion at 66.6 nM on HEK293 cells transfected with CD28
PD-L1 (human) = PD-L1 (human) (UniProt Q9NZQ7); assay: flow cytometry on HEK293 cells transfected with PD-L1
PD-L1 (human), sequence (Q9NZQ7 19-290 limits assumed): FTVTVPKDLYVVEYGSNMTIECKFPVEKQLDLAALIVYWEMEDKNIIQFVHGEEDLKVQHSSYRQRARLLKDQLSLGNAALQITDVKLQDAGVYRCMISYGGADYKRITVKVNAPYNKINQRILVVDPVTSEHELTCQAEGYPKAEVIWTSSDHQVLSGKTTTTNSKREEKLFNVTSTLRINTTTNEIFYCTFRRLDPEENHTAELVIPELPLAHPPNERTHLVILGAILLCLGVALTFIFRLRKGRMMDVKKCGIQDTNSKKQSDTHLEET

CD28 (human) = CD28 (human) (UniProt P10747); assay: flow cytometry on HEK293 cells transfected with CD28
CTLA4 (human) = CTLA4 (human) (UniProt P16410); assay: flow cytometry on HEK293 cells transfected with CTLA4
CTLA4 (human), sequence (P16410 36-223 limits assumed): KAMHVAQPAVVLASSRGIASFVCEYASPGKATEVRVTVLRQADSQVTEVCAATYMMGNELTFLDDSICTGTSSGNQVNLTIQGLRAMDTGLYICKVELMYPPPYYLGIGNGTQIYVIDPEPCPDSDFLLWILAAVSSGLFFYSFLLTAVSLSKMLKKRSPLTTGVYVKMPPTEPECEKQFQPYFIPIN

[4] = target: human CD28, full-length, expressed on transfected Expi293 cells (human) (UniProt P10747); assay: flow cytometry on CD28-expressing Expi293 cells
[5] = target: human PD-L1, full-length, expressed on transfected Expi293 cells (human) (UniProt Q9NZQ7); assay: flow cytometry on PD-L1-expressing Expi293 cells
human PD-L1, full-length, expressed on transfected Expi293 cells (human), sequence (Q9NZQ7 19-290 limits assumed): as the sequence (Q9NZQ7 19-290 limits assumed) above

[6] = target: human CTLA-4, full-length, expressed on transfected Expi293 cells (human) (UniProt P16410); assay: flow cytometry on CTLA-4-expressing Expi293 cells
human CTLA-4, full-length, expressed on transfected Expi293 cells (human), sequence (P16410 36-223 limits assumed): as the sequence (P16410 36-223 limits assumed) above

[7] = target: PD-1 (Homo sapiens (Human)) (UniProt Q15116); assay: flow cytometry, cells expressing PD-1
[8] = target: CD80 (Homo sapiens (Human)) (UniProt P33681); assay: flow cytometry, cells expressing CD80

human CTLA4, full length, on transfected HEK293 cells (human), sequence (P16410 36-223 limits assumed): as above
CD80 IgV Fc (wild-type CD80 IgV domain fused to Fc), sequence (P33681 35-141 limits assumed): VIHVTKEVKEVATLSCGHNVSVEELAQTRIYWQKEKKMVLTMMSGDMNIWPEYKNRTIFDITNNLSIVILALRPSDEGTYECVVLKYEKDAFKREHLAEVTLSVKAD
human PD-L1, full length, on transfected HEK293 cells (human), sequence (Q9NZQ7 19-290 limits assumed): as the sequence (Q9NZQ7 19-290 limits assumed) above

CD80 IgV Fc (wild-type CD80 IgV domain fused to Fc) (from UniProt P33681 35-141) (Fc fusion)
MFI at 66.6 nM [1]: 20700 MFI
MFI at 22.2 nM [2]: 1770 MFI
MFI at 66.6 nM [3]: 1620 MFI

CD80 IgV-Fc A71D (from UniProt P33681 35-141) (Fc fusion)
MFI at 22.2 nM (PD-L1 (human)): 29600 MFI
MFI at 66.6 nM (CD28 (human)): 16800 MFI
MFI at 66.6 nM (CTLA4 (human)): 220000 MFI

CD80 IgV-Fc E35D/M47I/L65P/D90N (from UniProt P33681 35-141) (Fc fusion)
MFI at 22.2 nM (PD-L1 (human)): 4030 MFI
MFI at 66.6 nM (CD28 (human)): 2530 MFI
MFI at 66.6 nM (CTLA4 (human)): 4410 MFI

CD80 IgV-Fc E35D/T57I/L70Q/A71D (from UniProt P33681 35-141) (Fc fusion)
MFI at 22.2 nM (PD-L1 (human)): 2420 MFI
MFI at 66.6 nM (CD28 (human)): 21300 MFI

CD80 IgV-Fc L25S/E35D/M47I/D90N (from UniProt P33681 35-141) (Fc fusion)
MFI at 22.2 nM (PD-L1 (human)): 20900 MFI
MFI at 66.6 nM (CD28 (human)): 4840 MFI
MFI at 66.6 nM (CTLA4 (human)): 61300 MFI

CD80 IgV-Fc L72P/T79I (from UniProt P33681 35-141) (Fc fusion)
MFI at 22.2 nM (PD-L1 (human)): 6020 MFI
MFI at 66.6 nM (CD28 (human)): 3400 MFI
MFI at 66.6 nM (CTLA4 (human)): 50200 MFI

CD80 IgV-Fc M42I/I61V/A71D (from UniProt P33681 35-141) (Fc fusion)
MFI at 22.2 nM (PD-L1 (human)): 4230 MFI
MFI at 66.6 nM (CD28 (human)): 6070 MFI
MFI at 66.6 nM (CTLA4 (human)): 54500 MFI

CD80 IgV-Fc M47I/E88D (from UniProt P33681 35-141) (Fc fusion)
MFI at 22.2 nM (PD-L1 (human)): 97700 MFI
MFI at 66.6 nM (CD28 (human)): 7340 MFI
MFI at 66.6 nM (CTLA4 (human)): 105000 MFI

CD80 IgV-Fc M47V/N48H (from UniProt P33681 35-141) (Fc fusion)
MFI at 22.2 nM (PD-L1 (human)): 146000 MFI
MFI at 66.6 nM (CD28 (human)): 14600 MFI
MFI at 66.6 nM (CTLA4 (human)): 207000 MFI

CD80 IgV-Fc P51A/A71D (from UniProt P33681 35-141) (Fc fusion)
MFI at 22.2 nM (PD-L1 (human)): 5530 MFI
MFI at 66.6 nM (CD28 (human)): 4260 MFI

CD80 IgV-Fc S44P/A71D (from UniProt P33681 35-141) (Fc fusion)
MFI at 22.2 nM (PD-L1 (human)): 6310 MFI
MFI at 66.6 nM (CD28 (human)): 2740 MFI
MFI at 66.6 nM (CTLA4 (human)): 8840 MFI

CD80 IgV-Fc T13R/C16R/L70Q/A71D (from UniProt P33681 35-141) (Fc fusion)
MFI at 22.2 nM (PD-L1 (human)): 9520 MFI
MFI at 66.6 nM (CD28 (human)): 16100 MFI
MFI at 66.6 nM (CTLA4 (human)): 197000 MFI

CD80 IgV-Fc T57I (from UniProt P33681 35-141) (Fc fusion)
MFI at 22.2 nM (PD-L1 (human)): 3380 MFI
MFI at 66.6 nM (CD28 (human)): 23600 MFI
MFI at 66.6 nM (CTLA4 (human)): 394000 MFI

CD80 IgV-Fc T79P (from UniProt P33681 35-141) (Fc fusion)
MFI at 22.2 nM (PD-L1 (human)): 4410 MFI
MFI at 66.6 nM (CD28 (human)): 2660 MFI
MFI at 66.6 nM (CTLA4 (human)): 2000 MFI

CD80 IgV-Fc V22I/L70M/A71D (from UniProt P33681 35-141) (Fc fusion)
MFI at 22.2 nM (PD-L1 (human)): 33400 MFI
MFI at 66.6 nM (CD28 (human)): 22800 MFI

CD80 variant A91G/S103P ECD-Fc fusion (from UniProt P33681 35-242)
MFI [4]: 39 MFI
MFI [5]: 9 MFI

CD80 variant E24G/R29D/Y31L/Q33H/K36G/M38I/T41A/M43R/M47T/F59L/E81V/L85R/K89N/A91T/F92P/K93V/R94L/H96R ECD-Fc fusion
MFI [6]: 1020 MFI
MFI parental ratio (ratio to WT CD80 ECD-Fc) [6]: 0.02
MFI [4]: 1070 MFI
MFI parental ratio (ratio to WT CD80 ECD-Fc) [4]: 0.08
MFI [5]: 1120 MFI
MFI parental ratio (ratio to WT CD80 ECD-Fc) [5]: 0.06

CD80 variant E52G/L70Q/A91G/T120S/T130A ECD-Fc fusion (from UniProt P33681 35-242)
MFI [6]: 245 MFI
MFI [5]: 6 MFI

CD80 variant IgV-Fc A26E/E35D/M47L/L85Q (from UniProt P33681 35-141) (Fc fusion)
MFI at 66.6 nM [1]: 40300 MFI
MFI at 22.2 nM [2]: 55500 MFI
MFI at 66.6 nM [3]: 2270 MFI

CD80 variant IgV-Fc A26P/E35D/M43I/L85Q/E88D (from UniProt P33681 35-141) (Fc fusion)
MFI at 66.6 nM [1]: 83100 MFI
MFI at 22.2 nM [2]: 9510 MFI
MFI at 66.6 nM [3]: 5410 MFI

CD80 variant IgV-Fc E23G/A26S/E35D/T62N/A71D/L72V/L85M (from UniProt P33681 35-141) (Fc fusion)
MFI at 66.6 nM [1]: 59000 MFI
MFI at 66.6 nM [3]: 5480 MFI

CD80 variant IgV-Fc E35D/D46V/L85Q (from UniProt P33681 35-141) (Fc fusion)
MFI at 66.6 nM [1]: 86000 MFI
MFI at 22.2 nM [2]: 38100 MFI
MFI at 66.6 nM [3]: 7510 MFI

CD80 variant IgV-Fc E35D/M43L/L70M (from UniProt P33681 35-141) (Fc fusion)
MFI at 66.6 nM [1]: 102000 MFI
MFI at 22.2 nM [2]: 40600 MFI

CD80 variant IgV-Fc L70Q/A71D (from UniProt P33681 35-141) (Fc fusion)
MFI at 66.6 nM [1]: 45000 MFI
MFI at 22.2 nM [2]: 1690 MFI
MFI at 66.6 nM [3]: 18600 MFI

CD80 variant IgV-Fc M47V/I69F/A71D/V83I (from UniProt P33681 35-141) (Fc fusion)
MFI at 66.6 nM [1]: 76900 MFI
MFI at 22.2 nM [2]: 3400 MFI
MFI at 66.6 nM [3]: 15900 MFI

CD80 variant IgV-Fc Q27H/E35G/A71D/L72P/T79I (from UniProt P33681 35-141) (Fc fusion)
MFI at 66.6 nM [1]: 85100 MFI
MFI at 22.2 nM [2]: 1450 MFI

CD80 variant IgV-Fc Q27L/E35D/M47I/T57I/L70Q/E88D (from UniProt P33681 35-141) (Fc fusion)
MFI at 66.6 nM [1]: 59800 MFI
MFI at 22.2 nM [2]: 1050 MFI

CD80 variant IgV-Fc T41S/T57I/L70R (from UniProt P33681 35-141) (Fc fusion)
MFI at 66.6 nM [1]: 59800 MFI
MFI at 22.2 nM [2]: 19500 MFI
MFI at 66.6 nM [3]: 4900 MFI

CD80 variant IgV-Fc V20I/A71D (from UniProt P33681 35-141) (Fc fusion)
MFI at 66.6 nM [1]: 60300 MFI
MFI at 22.2 nM [2]: 3550 MFI

CD80 variant IgV-Fc V22L/E35D/M43L/A71G/D76H (from UniProt P33681 35-141) (Fc fusion)
MFI at 66.6 nM [1]: 2970 MFI
MFI at 22.2 nM [2]: 1850 MFI
MFI at 66.6 nM [3]: 1500 MFI

CD80 variant K36E/I67T/L70Q/A91G/T120S/T130A/N152T ECD-Fc fusion (from UniProt P33681 35-242)
MFI [4]: 8 MFI
MFI [5]: 5 MFI

CD80 variant K37E/F59S/L70Q/A91G/T120S/T130A ECD-Fc fusion (from UniProt P33681 35-242)
MFI [6]: 74 MFI
MFI [4]: 20 MFI
MFI [5]: 6 MFI

CD80 variant K89E/T130A ECD-Fc fusion (from UniProt P33681 35-242)
MFI [6]: 148 MFI

CD80 variant K89R/D90K/A91G/F92Y/K93R/N122S/N178S ECD-Fc fusion (from UniProt P33681 35-242)
MFI [6]: 49400 MFI
MFI [4]: 41700 MFI

CD80 variant L70Q/A91G/T110A/T120S/T130A ECD-Fc fusion (from UniProt P33681 35-242)
MFI [6]: 14 MFI

CD80 variant N63S/L70Q/A91G/T120S/T130A ECD-Fc fusion (from UniProt P33681 35-242)
MFI [6]: 165 MFI
MFI [4]: 124 MFI
MFI [5]: 6 MFI

CD80 variant T28S/L70Q/A91G/E95K/T120S/T130A ECD-Fc fusion (from UniProt P33681 35-242)
MFI [6]: 65 MFI
MFI [4]: 32 MFI
MFI [5]: 6 MFI

CD80 variant V4M/L70Q/A91G/T120S/T130A ECD-Fc fusion
MFI [6]: 263 MFI
MFI parental ratio (ratio to WT CD80 ECD-Fc) [6]: 1.26
MFI [4]: 89 MFI
MFI parental ratio (ratio to WT CD80 ECD-Fc) [4]: 0.94
MFI [5]: 6 MFI
MFI parental ratio (ratio to WT CD80 ECD-Fc) [5]: 0.09

variant PD-L1 ECD-Fc G15A, I36T, V129D (from UniProt Q9NZQ7 19-238) (Fc fusion)
MFI at 20 nM [7]: 114
MFI at 20 nM [8]: 136

variant PD-L1 ECD-Fc I36S, M41K, M97L, K144Q, R195G, E200K, H202Q, L206F (Fc fusion)
MFI at 20 nM [7]: 3500
MFI at 20 nM [8]: 68700

variant PD-L1 ECD-Fc I36T, I83T, M97L, K144E, P198T (Fc fusion)
MFI at 20 nM [7]: 62
MFI at 20 nM [8]: 6220

variant PD-L1 ECD-Fc I36T, M97L, A103V, Q155H (from UniProt Q9NZQ7 19-238) (Fc fusion)
MFI at 20 nM [7]: 120
MFI at 20 nM [8]: 128

variant PD-L1 ECD-Fc I36T, M97L, Q155H, F193S, N201Y (Fc fusion)
MFI at 20 nM [7]: 69
MFI at 20 nM [8]: 1250

variant PD-L1 ECD-Fc K28I, S99G (Fc fusion)
MFI at 20 nM [7]: 830
MFI at 20 nM [8]: 693

variant PD-L1 ECD-Fc L35P, I36S, M97L, K111E (from UniProt Q9NZQ7 19-238) (Fc fusion)
MFI at 20 nM [7]: 190
MFI at 20 nM [8]: 155

variant PD-L1 ECD-Fc M18I, I36T, E53G, M97L, K144E, E199G, V207A (from UniProt Q9NZQ7 19-238) (Fc fusion)
MFI at 20 nM [7]: 104
MFI at 20 nM [8]: 47400

variant PD-L1 ECD-Fc Y10F, M18V, S99G, Q138R, T203A (from UniProt Q9NZQ7 19-238) (Fc fusion)
MFI at 20 nM [7]: 70
MFI at 20 nM [8]: 412

From patent US20200040059A1
